The target of one test is T1, AtNFS1 alone (Arabidopsis thaliana, UniProt O49543).
T1 construct: gene NIFS1; mature form, pET32a with His6 tag and TEV site, codon-optimised, E. coli expression; about 48 kDa with His6
T1 sequence (O49543 35-453): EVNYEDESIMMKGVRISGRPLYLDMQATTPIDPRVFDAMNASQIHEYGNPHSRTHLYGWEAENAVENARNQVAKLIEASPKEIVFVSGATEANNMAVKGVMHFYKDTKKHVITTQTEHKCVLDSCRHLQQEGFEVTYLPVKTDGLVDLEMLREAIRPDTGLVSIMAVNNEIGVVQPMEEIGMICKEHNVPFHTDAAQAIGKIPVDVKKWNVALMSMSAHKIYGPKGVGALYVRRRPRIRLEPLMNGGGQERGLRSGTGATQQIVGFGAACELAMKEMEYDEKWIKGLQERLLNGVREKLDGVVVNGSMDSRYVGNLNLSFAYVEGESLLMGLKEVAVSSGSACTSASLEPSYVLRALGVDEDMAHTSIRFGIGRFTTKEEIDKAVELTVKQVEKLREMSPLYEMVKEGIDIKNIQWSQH
As to the kind of experiment: L-alanine production, ninhydrin colorimetric assay at […] nm. As to conditions: no AtFH or AtISD11, 25 mM Tris-HCl pH 8, 100 mM NaCl, 10 uM PLP, 100 uM DTT, 37 °C, low activity. The class given is biochemical.

Test [1] addresses AtNFS1-His6 (cysteine desulfurase AtNFS1 from Arabidopsis thaliana, mature form, His6-tagged) (Arabidopsis thaliana) (UniProt O49543).
For test [2] the target is unchanged. The source holds these as a separate data set.

For `N[C@@H](CS)C(=O)O` [L-cysteine], at AtNFS1 alone, the “L-alanine production, ninhydrin colorimetric assay at 565 nm” value is on record as “in the presence of its substrates, AtNFS1 alone shows low cysteine desulfurase activity”.
On to “AtFH (frataxin from Arabidopsis thaliana, mature form, without His6 tag) (natural protein)”, for which the cysteine desulfurase activity of AtNFS1 in the presence of AtFH and AtISD11 (1:1:1 molar ratio), Vmax in test [1] came to 47.8 U/mg. This compound registered an attenuation of the Fenton reaction (decrease in malondialdehyde produced from dRibose, Fe(II) and H2O2) with AtFH, AtNFS1 and AtISD11 together (30 uM each); AtFH alone about 40% in test [2] of 80%.

These data come from paper PMC7570111, “Iron-Sulfur Cluster Complex Assembly in the Mitochondria of Arabidopsis thaliana” (Plants, 2020).
